Laboratory results: patent US20030040044A1

Key:
[1] = target: αVβ3 integrin on human cells (human) (UniProt P06756); test: saturation binding of 125-I ReoPro to A375S2 cells (express αvβ3 and αvβ5; ReoPro showed no binding to αvβ5), n = 3
[2] = target: αVβ3 integrin on human cells (human) (UniProt P06756)
[3] = target: αVβ3 integrin on human cells (human) (UniProt P06756); test: saturation binding of 125-I ReoPro to A375S2 cells, Bmax, n = 6
[4] = target: αVβ3 integrin on human cells (human) (UniProt P06756); remark: listed apart in the source
[5] = target: αVβ3 integrin on human cells (human) (UniProt P06756); test: saturation binding of 125-I ReoPro to M21 cells (express αvβ3 and αvβ5; ReoPro showed no binding to αvβ5), n = 3
[6] = target: αVβ3 integrin on human cells (human) (UniProt P06756); test: saturation binding of 125-I ReoPro to M21 cells, Bmax, n = 7

B1: ReoPro (Fab, INN chains, looked up, V domains shown)
VH: EVQLQQSGTVLARPGASVKMSCEASGYTFTNYWMHWVKQRPGQGLEWIGAIYPGNSDTSYIQKFKGKAKLTAVTSTTSVYMELSSLTNEDSAVYYCTLYDGYYVFAYWGQGTLVTVSA
VL: EIVLTQSPVTLSVTPGDSVSLSCRASRDISNNLHWFQQTSHESPRLLIKYASQSMSGIPSRFSGSGSGTDFTLSINSVETEDFGMYFCQQTNSWPYTFGGGTKLEIK
modifications: Fab 125I label in some assays
B1 showed a Kd [1] of 22 nM, an Adhesion (%) of A375S.2 cells to fibrin (% of adhesion without antibody) [2] of 12.9 and an Adhesion (%) of A375S.2 cells to fibrinogen (% of adhesion without antibody) [2] of 6.5. It also gave an Adhesion (%) of A375S.2 cells to gelatin (% of adhesion without antibody) [2] of 6, an Adhesion (%) of A375S.2 cells to vitronectin (% of adhesion without antibody) [2] of 38.1 and a Receptors per cell (receptors per cell) [3] of 370000. It also gave an Adhesion (%) of HUVEC to fibrin (% of adhesion without antibody) [4] of 35.8, an Adhesion (%) of HUVEC to fibrinogen (% of adhesion without antibody) [4] of 8.7 and an Adhesion (%) of HUVEC to gelatin (% of adhesion without antibody) [4] of 2.5. For the same binder, the Adhesion (%) of HUVEC to vitronectin (% of adhesion without antibody) [4] was 54.9, the Kd [5] was 10 nM and the Receptors per cell (receptors per cell) [6] was 660000.
